Tested on: peptide library, one residue held at a place counted from the S/T acceptor
Test: relative phosphorylation of the sub-library (ratio to the mean residue at this position); higher = residue favoured
Conditions: human
Method in brief: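 Purified recombinant kinases (human or orthologue constructs) were incubated in 384-well plates with biotinylated degenerate peptide sub-libraries, each fixing one residue at one position around a central Ser/Thr. Peptides were at 50 μM, with 50 μM ATP spiked with γ-32P-ATP, for 90 min under kinase-specific conditions. Spots on streptavidin membranes were phosphorimaged and quantified by densitometry. Relative sub-library phosphorylation is a ratio to the mean residue at that position.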

SIK2, construct: Full length, sequence (Q9H0K1 whole entry, looked up): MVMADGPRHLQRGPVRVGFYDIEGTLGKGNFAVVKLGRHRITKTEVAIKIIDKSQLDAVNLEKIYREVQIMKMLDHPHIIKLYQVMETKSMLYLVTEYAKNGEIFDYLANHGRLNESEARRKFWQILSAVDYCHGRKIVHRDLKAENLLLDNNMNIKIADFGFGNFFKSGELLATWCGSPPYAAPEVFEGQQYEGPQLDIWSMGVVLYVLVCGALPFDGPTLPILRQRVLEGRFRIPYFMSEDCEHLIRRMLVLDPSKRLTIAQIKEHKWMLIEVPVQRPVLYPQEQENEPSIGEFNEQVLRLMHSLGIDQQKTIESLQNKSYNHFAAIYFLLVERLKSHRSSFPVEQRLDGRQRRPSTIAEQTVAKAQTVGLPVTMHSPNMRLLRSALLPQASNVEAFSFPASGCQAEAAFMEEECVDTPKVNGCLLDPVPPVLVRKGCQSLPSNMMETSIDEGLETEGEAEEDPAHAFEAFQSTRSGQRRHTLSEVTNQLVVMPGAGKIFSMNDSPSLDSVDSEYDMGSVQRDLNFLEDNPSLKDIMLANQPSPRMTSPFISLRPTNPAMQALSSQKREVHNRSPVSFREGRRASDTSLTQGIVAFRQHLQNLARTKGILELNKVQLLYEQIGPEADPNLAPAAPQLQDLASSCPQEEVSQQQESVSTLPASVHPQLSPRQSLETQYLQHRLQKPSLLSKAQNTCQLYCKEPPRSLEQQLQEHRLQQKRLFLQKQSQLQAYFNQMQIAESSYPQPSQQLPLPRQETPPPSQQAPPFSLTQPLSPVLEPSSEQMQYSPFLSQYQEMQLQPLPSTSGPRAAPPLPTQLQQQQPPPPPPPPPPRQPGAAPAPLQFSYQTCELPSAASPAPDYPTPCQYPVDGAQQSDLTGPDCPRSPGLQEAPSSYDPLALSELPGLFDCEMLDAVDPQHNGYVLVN
ULK1, construct: aa1-649, sequence (O75385 1-649, looked up): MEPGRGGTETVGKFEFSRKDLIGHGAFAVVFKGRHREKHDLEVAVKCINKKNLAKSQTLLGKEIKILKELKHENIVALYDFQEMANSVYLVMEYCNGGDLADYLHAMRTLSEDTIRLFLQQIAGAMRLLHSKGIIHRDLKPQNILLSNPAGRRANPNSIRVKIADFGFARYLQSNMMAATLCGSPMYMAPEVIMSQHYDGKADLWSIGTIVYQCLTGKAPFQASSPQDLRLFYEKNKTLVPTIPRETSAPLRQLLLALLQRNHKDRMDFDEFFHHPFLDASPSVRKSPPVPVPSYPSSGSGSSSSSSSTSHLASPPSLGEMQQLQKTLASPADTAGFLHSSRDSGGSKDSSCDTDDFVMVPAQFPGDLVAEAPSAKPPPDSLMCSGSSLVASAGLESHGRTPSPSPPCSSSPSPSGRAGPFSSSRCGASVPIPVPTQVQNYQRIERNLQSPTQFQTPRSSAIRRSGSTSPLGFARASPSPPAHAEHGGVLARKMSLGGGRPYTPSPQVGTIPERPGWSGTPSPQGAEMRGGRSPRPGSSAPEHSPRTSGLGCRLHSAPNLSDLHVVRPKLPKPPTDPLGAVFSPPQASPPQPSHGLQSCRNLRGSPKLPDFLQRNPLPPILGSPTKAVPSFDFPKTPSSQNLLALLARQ
STK25, construct: Full length, sequence (O00506 whole entry, looked up): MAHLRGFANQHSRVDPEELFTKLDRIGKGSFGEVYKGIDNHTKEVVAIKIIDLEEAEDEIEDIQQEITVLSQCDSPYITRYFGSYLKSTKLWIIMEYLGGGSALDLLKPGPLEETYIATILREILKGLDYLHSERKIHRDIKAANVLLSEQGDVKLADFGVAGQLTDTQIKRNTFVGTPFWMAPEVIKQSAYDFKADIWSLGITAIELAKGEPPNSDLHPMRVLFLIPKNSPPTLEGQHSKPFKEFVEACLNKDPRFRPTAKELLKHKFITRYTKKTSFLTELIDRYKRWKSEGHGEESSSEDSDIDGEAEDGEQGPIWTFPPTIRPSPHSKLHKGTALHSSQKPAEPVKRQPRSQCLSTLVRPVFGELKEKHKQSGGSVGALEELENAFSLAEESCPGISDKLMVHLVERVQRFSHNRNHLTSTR
STK26, construct: Full length, sequence (Q9P289 whole entry, looked up): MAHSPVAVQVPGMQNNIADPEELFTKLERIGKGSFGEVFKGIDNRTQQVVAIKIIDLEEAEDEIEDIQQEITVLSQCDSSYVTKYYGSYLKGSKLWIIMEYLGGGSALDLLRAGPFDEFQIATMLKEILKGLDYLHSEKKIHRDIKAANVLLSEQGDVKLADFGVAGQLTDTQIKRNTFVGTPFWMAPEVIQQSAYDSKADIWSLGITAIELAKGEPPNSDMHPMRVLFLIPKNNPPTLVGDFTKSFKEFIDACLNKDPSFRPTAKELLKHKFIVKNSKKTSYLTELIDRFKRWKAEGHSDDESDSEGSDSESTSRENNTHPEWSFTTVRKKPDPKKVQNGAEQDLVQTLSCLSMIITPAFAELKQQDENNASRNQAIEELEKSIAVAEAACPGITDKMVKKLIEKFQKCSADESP

SIK2, construct: Full length (from UniProt Q9H0K1)
relative phosphorylation
Conditions | at +1 | at +2 | at +3 | at +4 | at -1 | at -2 | at -3 | at -4 | at -5
A fixed | 0.683 | 0.923 | 0.762 | 0.745 | 0.883 | 1.45 | 0.789 | 0.944 | 0.972
D fixed | 0.42 | 0.461 | 1.59 | 0.353 | 0.463 | 0.232 | 0.255 | 0.57 | 0.48
E fixed | 0.487 | 0.486 | 0.54 | 0.309 | 0.388 | 0.208 | 0.327 | 0.599 | 0.463
F fixed | 1.13 | 0.924 | 1.51 | 0.96 | 0.685 | 1.5 | 0.969 | 0.98 | 1.2
G fixed | 0.622 | 0.518 | 0.556 | 0.631 | 2.45 | 0.96 | 0.658 | 0.991 | 0.89
H fixed | 1.06 | 1.1 | 1.23 | 0.79 | 1.03 | 1.37 | 1.14 | 1.02 | 0.858
I fixed | 1.05 | 0.988 | 0.821 | 2.46 | 0.591 | 0.561 | 0.627 | 0.762 | 1.09
K fixed | 1.18 | 1.19 | 0.856 | 1.11 | 1.65 | 1.26 | 2.14 | 1.56 | 1.5
L fixed | 1.17 | 1.15 | 0.988 | 2.94 | 0.929 | 0.52 | 0.752 | 0.828 | 1.76
M fixed | 1.68 | 0.94 | 0.916 | 1.4 | 1.03 | 0.664 | 0.765 | 1.02 | 1.17
N fixed | 1.03 | 1.03 | 2.08 | 0.635 | 1 | 0.583 | 0.526 | 0.828 | 0.757
P fixed | 0.336 | 0.68 | 0.33 | 0.578 | 0.923 | 0.394 | 0.788 | 0.729 | 0.767
Q fixed | 1.61 | 0.991 | 0.856 | 0.602 | 1.05 | 0.607 | 0.634 | 0.88 | 0.704
R fixed | 1.48 | 1.7 | 1.03 | 0.83 | 1.77 | 1.4 | 3.76 | 2.09 | 1.41
V fixed | 1 | 0.965 | 0.638 | 1.16 | 0.641 | 0.771 | 0.637 | 0.857 | 0.959
W fixed | 0.951 | 1.74 | 1.19 | 0.809 | 0.605 | 2.67 | 1.37 | 1.29 | 1.04
Y fixed | 1.11 | 1.21 | 1.12 | 0.688 | 0.918 | 1.85 | 0.864 | 1.06 | 0.967
pThr fixed | 0.905 | 0.696 | 0.382 | 0.389 | 0.467 | 0.567 | 0.613 | 0.787 | 0.791
pTyr fixed | 0.499 | 0.38 | 0.573 | 0.35 | 0.746 | 0.54 | 0.614 | 0.526 | 0.71

STK25, construct: Full length (from UniProt O00506)
relative phosphorylation
Conditions | at +1 | at +2 | at +3 | at +4 | at -1 | at -2 | at -3 | at -4 | at -5
A fixed | 0.561 | 0.853 | 0.857 | 0.981 | 0.996 | 1.07 | 0.986 | 1 | 1.24
D fixed | 0.151 | 0.326 | 0.447 | 0.515 | 0.772 | 0.464 | 0.671 | 0.752 | 0.774
E fixed | 0.166 | 0.195 | 0.404 | 0.454 | 0.538 | 0.398 | 0.604 | 0.865 | 0.682
F fixed | 1.28 | 0.564 | 1.01 | 0.718 | 0.756 | 1.19 | 0.875 | 0.975 | 0.922
G fixed | 0.443 | 1.13 | 1.17 | 1.12 | 1.98 | 1.26 | 1.27 | 1.1 | 1.21
H fixed | 0.884 | 1.24 | 1.07 | 1.2 | 1.3 | 1.43 | 1.24 | 1.11 | 1.15
I fixed | 1.87 | 0.572 | 0.895 | 0.845 | 0.453 | 0.86 | 0.777 | 0.775 | 0.801
K fixed | 0.669 | 2.4 | 1.64 | 2.01 | 1.23 | 1.04 | 1.31 | 1.28 | 1.52
L fixed | 1.56 | 0.486 | 0.865 | 0.743 | 0.901 | 0.791 | 0.844 | 0.8 | 0.758
M fixed | 1.89 | 0.735 | 0.926 | 0.822 | 1.14 | 0.879 | 0.974 | 0.99 | 0.899
N fixed | 0.474 | 1.08 | 0.985 | 0.919 | 1.26 | 1.01 | 1.13 | 1.03 | 0.902
P fixed | 0.175 | 0.616 | 0.787 | 1.11 | 0.599 | 0.693 | 0.876 | 0.871 | 1
Q fixed | 0.683 | 0.785 | 0.819 | 0.856 | 0.795 | 0.773 | 0.865 | 0.868 | 0.846
R fixed | 0.947 | 3.75 | 2.26 | 2.19 | 1.66 | 1.25 | 1.38 | 1.3 | 1.38
V fixed | 1.59 | 0.626 | 0.829 | 0.718 | 0.462 | 0.78 | 0.711 | 0.849 | 0.848
W fixed | 2.17 | 0.772 | 0.979 | 0.943 | 0.862 | 1.33 | 1.26 | 1.25 | 1.02
Y fixed | 1.48 | 0.872 | 1.06 | 0.852 | 1.3 | 1.79 | 1.23 | 1.18 | 1.05
pThr fixed | 0.459 | 0.376 | 0.534 | 0.435 | 0.45 | 0.615 | 0.774 | 0.98 | 0.918
pTyr fixed | 0.327 | 0.223 | 0.456 | 0.372 | 0.866 | 0.691 | 0.858 | 0.837 | 0.866

STK26, construct: Full length (from UniProt Q9P289)
relative phosphorylation
Conditions | at +1 | at +2 | at +3 | at +4 | at -1 | at -2 | at -3 | at -4 | at -5
A fixed | 0.593 | 0.524 | 0.871 | 0.922 | 0.76 | 0.947 | 0.809 | 1.21 | 1.23
D fixed | 0.265 | 0.606 | 0.583 | 0.538 | 0.894 | 0.424 | 0.625 | 0.745 | 0.706
E fixed | 0.21 | 0.519 | 0.525 | 0.538 | 0.475 | 0.373 | 0.616 | 0.797 | 0.653
F fixed | 1.24 | 0.246 | 0.869 | 0.625 | 0.499 | 0.972 | 0.754 | 0.771 | 0.777
G fixed | 0.583 | 2.19 | 1.44 | 0.991 | 2.31 | 1.21 | 1.09 | 1.09 | 1.03
H fixed | 0.805 | 1.06 | 1 | 1.06 | 1.11 | 1.35 | 1.01 | 1.17 | 1.05
I fixed | 1.56 | 0.511 | 0.798 | 0.971 | 0.397 | 0.759 | 0.711 | 0.83 | 0.929
K fixed | 0.666 | 3.49 | 2.55 | 2.01 | 2.16 | 2.08 | 2.31 | 1.64 | 1.92
L fixed | 1.78 | 0.402 | 1.05 | 0.77 | 0.78 | 0.549 | 0.665 | 0.682 | 0.783
M fixed | 1.3 | 0.358 | 0.667 | 0.818 | 0.666 | 0.613 | 0.79 | 0.773 | 0.74
N fixed | 0.53 | 1.27 | 0.771 | 0.862 | 1.39 | 1.15 | 1.15 | 1.08 | 0.994
P fixed | 0.372 | 1.03 | 0.636 | 0.828 | 0.551 | 0.659 | 0.739 | 0.879 | 0.791
Q fixed | 0.642 | 0.774 | 0.741 | 0.932 | 0.938 | 0.882 | 0.903 | 0.939 | 1
R fixed | 0.722 | 2.77 | 2.16 | 1.89 | 2.15 | 2.03 | 2.21 | 1.64 | 1.61
V fixed | 1.4 | 0.517 | 0.751 | 0.874 | 0.483 | 0.942 | 0.846 | 0.954 | 1.01
W fixed | 3.2 | 0.394 | 0.814 | 1.38 | 0.821 | 1.01 | 0.943 | 0.941 | 0.969
Y fixed | 1.12 | 0.326 | 0.767 | 0.994 | 0.607 | 1.05 | 0.824 | 0.876 | 0.812
pThr fixed | 0.722 | 0.707 | 0.584 | 0.815 | 0.813 | 1.05 | 0.981 | 0.958 | 0.86
pTyr fixed | 0.604 | 0.368 | 0.714 | 0.54 | 1.2 | 1.19 | 0.996 | 0.69 | 0.834

ULK1, construct: aa1-649 (from UniProt O75385)
relative phosphorylation
Conditions | at +1 | at +2 | at +3 | at +4 | at -1 | at -2 | at -3 | at -4 | at -5
A fixed | 0.56 | 0.645 | 0.867 | 0.899 | 1.17 | 1.22 | 0.964 | 1.16 | 1.15
D fixed | 0.265 | 0.292 | 0.853 | 0.841 | 1.13 | 1.22 | 0.659 | 1.21 | 1.61
E fixed | 0.424 | 0.307 | 0.834 | 0.944 | 1.19 | 1.19 | 0.572 | 0.905 | 1.02
F fixed | 1.74 | 1.12 | 0.842 | 0.803 | 0.477 | 1.08 | 1.11 | 0.716 | 0.797
G fixed | 0.359 | 0.409 | 1.04 | 1.11 | 0.79 | 0.916 | 0.884 | 1.3 | 1.18
H fixed | 0.854 | 1.87 | 1.13 | 1.19 | 0.857 | 1.14 | 0.682 | 1.01 | 1.15
I fixed | 1.53 | 1.26 | 0.869 | 0.738 | 0.543 | 0.753 | 0.674 | 0.678 | 0.572
K fixed | 0.615 | 0.849 | 1.48 | 1.32 | 1.83 | 0.608 | 0.404 | 0.832 | 1.09
L fixed | 1.13 | 0.94 | 0.901 | 0.836 | 0.723 | 0.799 | 1.56 | 0.821 | 0.733
M fixed | 2.01 | 1.23 | 0.906 | 0.848 | 1.19 | 1.09 | 4.03 | 1.07 | 0.786
N fixed | 0.563 | 0.816 | 0.891 | 1.01 | 1.09 | 0.947 | 1.1 | 1.2 | 1.42
P fixed | 0.234 | 0.211 | 0.927 | 1.32 | 0.397 | 0.439 | 0.698 | 1.27 | 0.811
Q fixed | 1.26 | 0.753 | 1.24 | 1.17 | 1.52 | 0.991 | 0.837 | 1.02 | 0.957
R fixed | 0.725 | 0.989 | 1.2 | 0.993 | 1.57 | 0.545 | 0.447 | 0.844 | 1.1
V fixed | 1.47 | 1.02 | 0.866 | 0.77 | 0.903 | 0.913 | 0.574 | 0.659 | 0.661
W fixed | 1.39 | 1.65 | 1.1 | 1.2 | 0.82 | 1.93 | 1.2 | 1.6 | 1.18
Y fixed | 1.87 | 2.64 | 1.04 | 1 | 0.794 | 1.22 | 0.599 | 0.716 | 0.786
pThr fixed | 0.885 | 0.413 | 0.718 | 1.13 | 0.568 | 0.67 | 0.704 | 0.846 | 0.762
pTyr fixed | 1.14 | 0.618 | 0.648 | 0.615 | 0.99 | 1.12 | 0.642 | 0.672 | 0.664
